# Assay results reported in the nanobody polyreactivity screen of Harvey et al. (2022).
# Experiment: yeast display, Sf9 membrane polyspecificity reagent, FACS + sequencing; frameworks hold sequencing errors
# Summary of the method: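 Synthetic nanobody libraries on Saccharomyces cerevisiae BJ5465 were galactose-induced for 36–48 hours, stained 1 hour at 4 °C with 10% biotinylated, detergent-solubilized Sf9 membrane reagent and enriched on streptavidin microbeads. FACS then separated cells into low and high (top ~1%) gates by anti-HA (expression) and streptavidin (reagent binding) fluorescence. Genes were colony-PCR amplified, MiSeq 2 × 250 sequenced and CDR-length filtered. A clone's polyreactivity label is that of its gate of origin.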
row,Sequence,polyreactivity (PSR sort gate)
1,QVQLVESGGGLVQAGGSLRLSCAASGFTFSRYAMGWYRQAPGKERELVAAISKSTDSTYYADSVKGRFTISRDNAKNTVYLQMNSLKPEDTAVYYCAAVQRYKGLQDDSWGQGTQVTVSS,high polyreactivity
2,QVQLVESGGGLVQAGGSLRLSCAASGFTFSRYAMGWYRQAPGKERELVAAISYSGGTTYYADSVKGRFTISRDNAKNTVYLQMNSLKPEDTAVYYCNARARGQLVGHYYYWGQGTQVTVSS,high polyreactivity
3,QVQLVESGGGLVQAGGSLRLSCAASGFTFSRYAMGWYRQAPGKERELVAAITLGGGNTYYADSVKGRFTISRDNAKYSVYLQMNSLKREDTSVYYCNAKFGIFGYRSGGYDYWGEGTQVTVSS,high polyreactivity
4,QVQLVESGGGLVQAGGSLRLSCAASGFTFSRYTMGWYRQAPGKERELDAAINRRGGSTYYADSVKGRFTISRDNAKNTVYLQMNSLKPEDTAVYYCAATYTVRSGNGIANDYWGQGTQVTVSS,high polyreactivity
5,QVQLVESGGGLVQAGGSLRLSCAASGFTFSRYTMGWYRQAPGKERELVAAITSVGSTYYADSVKGRFTISRDNAKNTVYLQMNSLKPEDTAVYYCARTYSTWYYYWGQGTQVTVSS,high polyreactivity
6,QVQLVESGGGLVQAGGSLRLSCAASGFTFSSNAMGWYRQAPGKERELVAAISFNSTSTYYADSVKGRFTISRDNAKNTVYLQMNSLKPEDTAVYYCAADVPRVQSEPEYDYWGQGTQVTVSS,low polyreactivity
7,QVQLVESGGGLVQAGGSLRLSCAASGFTFSSNAMGWYRQAPGKERELVAAISSSGARTYYADSVKGRFTISRDNAKNTVYLQMNSLKPEDTAVYYCNARGLAGRKGYDYWGHGTQVTVSS,high polyreactivity
8,QVQLVESGGGLVQAGGSLRLSCAASGFTFSTNAMGWYRQAPGKETELVAGITSSGGNTYYADSVKGRFTISRDNAKNTVYLQMNSLKPEDTAVYYCAKRRNYVAYDYWGQGTQVTVSS,high polyreactivity
9,QVQLVESGGGLVQAGGSLRLSCAASGFTFSTYAMGWYRQAPGKERELVAGITRRGGSTYYADSVKGRFTISRDNAKNTVYLQMNSLKPEDTAVYYCARDLLRVSSSRYNSWGQGTQVTVSS,high polyreactivity
10,QVQLVESGGGLVQAGGSLRLSCAASGFTFSYSAMGWYRPAPGKERELVAAISSGGRTYYADSVKGRFTISRDNAKNTVYLQMNSLKPEDTAVYYCNAEPDQYTLRSITNDEDYWGQGTQVTVSS,low polyreactivity
11,QVQLVESGGGLVQAGGSLRLSCAASGFTFSYYAMGWYRQAPGKERELVAAISRSGGSPYYADSVKGRFTISRDNAKYTVYLQMNSLKPADTAVYYCATDLSYRHGYWGQGTQVTVSS,high polyreactivity
12,QVQLVESGGGLVQAGGSLRLSCAASGFTFSYYAMGWYRQAPGKERELVAAITFTGGSTYYADSVKGRFTISRDNAKNTVYLQMNSLKPEDTAVYYCAADWYYGDEYEYWGQGTQVTVSS,high polyreactivity
13,QVQLVESGGGLVQAGGSLRLSCAASGFTFSYYAMGWYRQAPGKERELVASISRSGNTYYADSVKGRFTISRDNAKNTFYLQMNSLKPEDTAVYYCAAKRKSYYSYNFDYWGQGTQVTVSS,high polyreactivity
14,QVQLVESGGGLVQAGGSLRLSCAASGFTFSYYDMGWYRQAPGTERELVAAISWSGGSTYYADSVKGRFTISRDNAKITVYLQMNSLKPEDTAVYYCNTDTDTTSSGYVYWGQGTQVTVSS,low polyreactivity
15,QVQLVESGGGLVQAGGSLRLSCAASGFTFTAYAMGWYRQAPGKERELVAAINWSGSRTYYADSVKGRFTISRDNAKNNVYLKMNSLKPEDTAVYYCNTATSKSSYRHYDYWGQGTQVTVSS,high polyreactivity
16,QVQLVESGGGLVQAGGSLRLSCAASGFTFTFNAMGWYRQAPGKERELVAGITSGTSTNYADSVKGRFTISRDNAKNTVYLQMNSLKPEDTAVYYCAADLYLTSGSQGVYVRYDYWGQGTQVTVSS,low polyreactivity
17,QVQLVESGGGLVQAGGSLRLSCAASGFTFTGNAMGWYRQAPGKERELVAAISRSGGSTFYADSVKGRFTISRDNAKNTVYLQMNSLKPEDTAVYYCAARRRTLNYLYDYWGQGTQVTVSS,high polyreactivity
18,QVQLVESGGGLVQAGGSLRLSCAASGFTFTGYTMGWYRQAPGKQRELVATISGSGGNTYYADSVKGRFTISRDNAKNTVYLQMNSLKPEDTAVYYCARRRSGPRVLYYYWGQGTQVTVSS,low polyreactivity
19,QVQLVESGGGLVQAGGSLRLSCAASGFTFTHYAMGWYRQAPGKERELVAAISTSGGSTYYADSVKGRFTISRDNAKNTVYLQMNSLKPEDTAVYYCAARRDGWVQWGYYYWGQGTQVTVSS,low polyreactivity
20,QVQLVESGGGLVQAGGSLRLSCAASGFTFTIYAMGWYRQAPGKERELVATISGRAGRTYYADSVKGRFTISRDNAKNTVYLQITSRKPEDSAVYYCNAGQWRYPGLYYYWGHGTQVTVSS,high polyreactivity
21,QVQLVESGGGLVQAGGSLRLSCAASGFTFTIYTMGWYRQAPGKERELVAAISRRGGSTYYADSVKGRFTISRDNAKNTVYLQMNSLNPEDTAVYYCAAYVPQGYKLYYWGQGTQVTGSS,high polyreactivity

row,Sequence,polyreactivity (PSR sort gate)
1,QVQLVESGGGLVQAGGSLRLSCAASGFTFTKNAMGWYRQAPGKEREMVAAITWRGGSTYYADSVKGRFTISRDNAKNTVYLQMNSLKPEDTAVYYCAADGGSLYDWGQGTQVTVSS,low polyreactivity
2,QVQLVESGGGLVQAGGSLRLSCAASGFTFTKYAMGWYRQAPVKERELVADITSGTSTYNADSVKGRFTISRDNAKNTVYLQMNSLKPEDTAVYYCAAPLYGRYSYGYWGQGTQVTVSS,high polyreactivity
3,QVQLVESGGGLVQAGGSLRLSCAASGFTFTPYAMGWYRQAPGKERELVAAISWSDVRTYYADSVKGRFTISRDNAKNTVFLQMNSLKPEDTAVYYCAAEFYFYSWSEYDYWGQGTQVTVSS,high polyreactivity
4,QVQLVESGGGLVQAGGSLRLSCAASGFTFTRNTMGWYRQAPGKERELVADINWDDGSTNYADSVKGRFTISRDNAKNTVYLQMNSLKPEDTAVYYCAADYYFYYLYPSSNLYNYWGQGTQVTVSS,low polyreactivity
5,QVQLVESGGGLVQAGGSLRLSCAASGFTFTRYAMGWYRQAPGKERELVAAISSCGDTYYADSVKGRFTISRDNAKNTVYLQMNSLKPEDTAVYYCAADQSSLDYGNDYWGQGTQVTVSS,low polyreactivity
6,QVQLVESGGGLVQAGGSLRLSCAASGFTFTRYAMGWYRQAPGKERELVAAISWSGGSTYYADSVKGRFTISRDNAKNTVYLQMNSLKPEDTAVYYCAKRGTVRQGGYGYWGQGTLVTVSS,high polyreactivity
7,QVQLVESGGGLVQAGGSLRLSCAASGFTFTSYAMGWYRQAPGKERELVAAITWDGGRTYYADSVKGRFTISRDNSKNTVYLQMNSLKPEDTAVYYCAKVYNPRQYDYWGQGTQVTVSS,low polyreactivity
8,QVQLVESGGGLVQAGGSLRLSCAASGFTFTTNAMGWYRQAPGKEREFVAAISRSGGSTDYADSVKGRFTISRDNAKNTVYLQMNSLKPEDTAVYYCNADPRLRQTRDYWGHGTQVTVSS,high polyreactivity
9,QVQLVESGGGLVQAGGSLRLSCAASGFTFTTYVMGWYRQAPGKERELVAAISRRGTSTRYADSVKGRFTISRDNAKITVYLQMNSLKTEDTAVYFCAADRPYSIVPYDYWGQGTQVTVSS,high polyreactivity
10,QVQLVESGGGLVQAGGSLRLSCAASGFTFTVYAMGWYRPAPGKERELVAVITSGDGTYYADSVKGRFTISRDNAKNTVYLQMNSLKPEDTAVYYCNARRYSSFRYRFAYDYWGQGTQVTVSS,low polyreactivity
11,QVQLVESGGGLVQAGGSLRLSCAASGFTFTVYAMGWYRQAPGKERELVAVITAGDGTYYADSVKGRFTISRDNAKNTVYLQMNSLKPEDTAVYYCIALRYSSFRYLFAYDYWGQGTQVTVSS,low polyreactivity
12,QVQLVESGGGLVQAGGSLRLSCAASGFTFTWYAMGWYRQAPGKERELVAAISSGGGRTYYADSVKGRFTISRDNAKNTVYLQMNSLKPEDTAVYYCNAVAGGVYVDNGYDYWGQGTQVTVSS,high polyreactivity
13,QVQLVESGGGLVQAGGSLRLSCAASGFTFTWYAMGWYRQAPGKERELVAAISSGGGRTYYADSVKGRFTISRDNAKNTVYLQMNSLKPEDTAVYYCNKVSSFGYYYWGQGTQVTVSS,high polyreactivity
14,QVQLVESGGGLVQAGGSLRLSCAASGFTFTYYAMGWYRQAPGKERELVAAISWRGTSTFYADSVKGRFTISRDNAKNTVYLQMNSLKPEDTAVYYCATEKWVGYKYWSSRKYDYWGQGTQVTVSS,high polyreactivity
15,QVQLVESGGGLVQAGGSLRLSCAASGFTFTYYAMGWYRQAPGKERELVATISSGGSTYYADSVKGRFTISRDNAKNTVYLQMNSLKPEDTAVYYCAAERGAITPLVYPPEFDYWGHGTQVTVSS,low polyreactivity
16,QVQLVESGGGLVQAGGSLRLSCAASGFTFVAYAMGWYRQAPGKERELVAAIRRTDTSTYYADSVKGRFTISRDNAKNTVYLQINSLKPEDTAVYYCAADYWRRTYLGFDYWGQGTQVTVSS,low polyreactivity
17,QVQLVESGGGLVQAGGSLRLSCAASGFTFVEYAMGWYRQATGKERELVAAITSGGSTYYADSVKGRFTISRDNAKNTVYLQMNSLKPADTAVYYCNAEGVVVAISHFSVQDGYWGQGTQVTVSS,low polyreactivity
18,QVQLVESGGGLVQAGGSLRLSCAASGFTFVGNAMGSYRQAPGKERELVAAITWSGGRTYYADSVKGRFTISRDNAKNTVYLQMNSLKPEDTAVYYCNKLVERWYGYWGQGTQVTVSS,high polyreactivity
19,QVQLVESGGGLVQAGGSLRLSCAASGFTFVGNAMGWSRQAPGKERELVATITSGGNTKYADSVKGRFTISRDNAKNTVYLQMHSLKPEDTAVYYCAAAKYNYRRFNYWGQGTQVTVSS,low polyreactivity
20,QVQLVESGGGLVQAGGSLRLSCAASGFTFVGNAMGWYRQAAGKEWELVADITGSDGSTYYADSVKGRFTISRDNAKNTVYLQINSLKPEDTAVYYCAASPPYKLVWWRRMDYWGQGTQVTVSS,low polyreactivity
